The text below walks through data of ChEMBL document CHEMBL1137666, “Biochemical Characterization of SFC-1, a class A carbapenem-hydrolyzing beta-lactamase” (Antimicrob Agents Chemother, 2007).

Data set [1] deals with Carbapenem-hydrolyzing beta-lactamase KPC (Klebsiella pneumoniae, UniProt Q9F663). The data set can be described thus: Inhibition of Klebsiella pneumoniae KPC-1 beta lactamase expressed in Escherichia coli DH5alpha by SDS-PAGE.
Substrate in data set [2]: CO[C@@]1(NC(=O)Cc2cccs2)C(=O)N2C(C(=O)O)=C(COC(N)=O)CS[C@@H]21
The data set can be described thus: (§1) Ratio of Kcat to Km for Klebsiella pneumoniae KPC-1 beta lactamase expressed in Escherichia coli DH5alpha by SDS-PAGE.

Substrate in data set [3]: CC(C)(O/N=C(\C(=O)N[C@@H]1C(=O)N2C(C(=O)[O-])=C(C[n+]3ccccc3)CS[C@H]12)c1csc(N)n1)C(=O)O
Described as §1.

Substrate in data set [4]: CCN1CCN(C(=O)N[C@@H](C(=O)N[C@@H]2C(=O)N3[C@@H]2SC(C)(C)[C@@H]3C(=O)O)c2ccccc2)C(=O)C1=O
The description is as §1.

Substrate in data set [5]: C[C@@H](O)[C@H]1C(=O)N2C(C(=O)O)=C(SCCNC=N)C[C@H]12
The data set is described as §1.

Substrate in data set [6]: CC(=O)OCC1=C(C(=O)O)N2C(=O)[C@@H](NC(=O)Cc3cccs3)[C@H]2SC1
The description is as §1.

Substrate in data set [7]: C[C@H]1[C@H](NC(=O)/C(=N\OC(C)(C)C(=O)O)c2csc(N)n2)C(=O)N1S(=O)(=O)O
Described as §1.

Substrate in data set [8]: CC1(C)S[C@@H]2[C@H](NC(=O)[C@H](N)c3ccccc3)C(=O)N2[C@H]1C(=O)O
The description is as §1.

Substrate in data set [9]: CO/N=C(\C(=O)N[C@@H]1C(=O)N2C(C(=O)O)=C(COC(C)=O)CS[C@H]12)c1csc(N)n1
The data set is described as §1.

Substrate in data set [10]: C[C@@H](O)[C@H]1C(=O)N2C(C(=O)O)=C(S[C@@H]3CN[C@H](C(=O)N(C)C)C3)[C@H](C)[C@H]12
The description is as §1.

Substrate in data set [11]: CO[C@@]1(NC(=O)Cc2cccs2)C(=O)N2C(C(=O)O)=C(COC(N)=O)CS[C@@H]21
The data set can be described thus: (§2) Activity of Klebsiella pneumoniae KPC-1 beta lactamase expressed in Escherichia coli DH5alpha by SDS-PAGE.

Substrate in data set [12]: CC(C)(O/N=C(\C(=O)N[C@@H]1C(=O)N2C(C(=O)[O-])=C(C[n+]3ccccc3)CS[C@H]12)c1csc(N)n1)C(=O)O
Described as §2.

Substrate in data set [13]: CCN1CCN(C(=O)N[C@@H](C(=O)N[C@@H]2C(=O)N3[C@@H]2SC(C)(C)[C@@H]3C(=O)O)c2ccccc2)C(=O)C1=O
The data set is described as §2.

Substrate in data set [14]: C[C@@H](O)[C@H]1C(=O)N2C(C(=O)O)=C(SCCNC=N)C[C@H]12
The data set is described as §2.

Substrate in data set [15]: CC(=O)OCC1=C(C(=O)O)N2C(=O)[C@@H](NC(=O)Cc3cccs3)[C@H]2SC1
The description is as §2.

Substrate in data set [16]: C[C@H]1[C@H](NC(=O)/C(=N\OC(C)(C)C(=O)O)c2csc(N)n2)C(=O)N1S(=O)(=O)O
The description is as §2.

Substrate in data set [17]: CC1(C)S[C@@H]2[C@H](NC(=O)[C@H](N)c3ccccc3)C(=O)N2[C@H]1C(=O)O
The data set is described as §2.

Substrate in data set [18]: CO/N=C(\C(=O)N[C@@H]1C(=O)N2C(C(=O)O)=C(COC(C)=O)CS[C@H]12)c1csc(N)n1
Described as §2.

Substrate in data set [19]: C[C@@H](O)[C@H]1C(=O)N2C(C(=O)O)=C(S[C@@H]3CN[C@H](C(=O)N(C)C)C3)[C@H](C)[C@H]12
Described as §2.

Broadly, the IC50 is the concentration that gives 50% inhibition. A high value points to weaker potency in that assay. The molecule `C[C@]1(Cn2ccnn2)[C@H](C(=O)O)N2C(=O)C[C@H]2S1(=O)=O` [TAZOBACTAM] gave an IC50 in [1] of 374 nM.

B1: Carbapenem-hydrolyzing beta-lactamase KPC (Klebsiella pneumoniae), Q9F663 (protein)
chain: MSLYRRLVLLSCLSWPLAGFSATALTNLVAEPFAKLEQDFGGSIGVYAMDTGSGATVSYRAEERFPLCSSFKGFLAAAVLARSQQQAGLLDTPIRYGKNALVPWSPISEKYLTTGMTVAELSAAAVQYSDNAAANLLLKELGGPAGLTAFMRSIGDTTFRLDRWELELNSAIPGDARDTSSPRAVTESLQKLTLGSALAAPQRQQFVDWLKGNTTGNHRIRAAVPADWAVGDKTGTCGVYGTANDYAVVWPTGRAPIVLAVYTRAPNKDDKHSEAVIAAAARLALEGLGVNGQ
The kcat/Km is the turnover number divided by the Michaelis constant. Broadly, the Km is the concentration of substrate that gives half-maximal velocity. One may read the kcat as the number of substrate molecules converted per active site and unit of time at saturation. B1: the kcat/Km in [2] turned out to be 2000 M⁻¹ s⁻¹; in [3], 1000 M⁻¹ s⁻¹; in data set [4], 1.33e+06 M⁻¹ s⁻¹; in data set [5] it was 150000 M⁻¹ s⁻¹; in data set [6], 1.4e+06 M⁻¹ s⁻¹; in [7], 70000 M⁻¹ s⁻¹. Also, the kcat/Km in [8] turned out to be 850000 M⁻¹ s⁻¹; in [9], 90000 M⁻¹ s⁻¹; in [10], 250000 M⁻¹ s⁻¹. The Km in [11] worked out at 120 µM; in data set [12], 94 µM; in data set [13] it was 18 µM; in [14] it was 81 µM; in data set [15], 53 µM; in data set [16] it was 310 µM. The Km was found to be 130 µM in data set [17], 160 µM in data set [18] and 12 µM in data set [19]. The kcat was 0.26 s⁻¹ in [11]; 0.1 s⁻¹ in [12]; 24 s⁻¹ in data set [13]; 12 s⁻¹ in [14]; 75 s⁻¹ in data set [15]; 20 s⁻¹ in data set [16]. The turnover number (kcat) is 110 s⁻¹ in data set [17], 14 s⁻¹ in [18] and 3 s⁻¹ in data set [19].
